Target: Flag-tagged BPGAP1
Test: co-immunoprecipitation (anti-Flag M2 beads) with immunoblot quantification
Conditions: HEK293T cell lysates; three independent experiments; parent: est. 1.0; read off a plot

ratio to parent [fold change]	Substance
0.72	HA-tagged Rac1, wild-type (WT) (from UniProt P63000) G12V
2.2	HA-tagged Rac1, wild-type (WT) (from UniProt P63000) T17N

Source: publication PMC10011724
